Measured values taken from the supplement of paper PMC6757056.
± gives the standard deviation of the averaged measurements.

B1: library; a variant is named by its letters at N, in order (parent)
chain: GCUGUCACCGGUGCUUGGUACGUUAUAUUCAGCCGGUCUGAUGAGUCUNNNNNNAGACGAAACAGC

What was measured:
(6R,S)-folinic acid [1] = variants of: B1; assay: normalized RNA/DNA level without ligand (relative to sTRSVctl = 100) (log10 (% of sTRSVctl)); HEK293T overexpressing SLC46A1; higher = less ribozyme self-cleavage, higher mRNA level; settings: without (6R,S)-folinic acid; ligand present: no
Outline: (§1)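 Ribozyme switch library plasmids linked to reporters were introduced into HEK293T cells at 4 µg per 6-well well, with ligand, if any, added 1 h before. Total RNA was extracted with EDTA 72 h later, reverse-transcribed, amplified, barcoded and sequenced. RNA level was computed from RNA over DNA reads relative to a spiked-in non-cleaving sequence or the top sequences, then scaled and log-transformed. The top set was 25 sequences, values were ×100 and log10, and the cutoff was ≥100 DNA reads.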

(6R,S)-folinic acid [2] = variants of: B1; assay: normalized RNA/DNA level with ligand (relative to sTRSVctl = 100) (log10 (% of sTRSVctl)); HEK293T overexpressing SLC46A1; ligand concentration (+) RNA-Seq: 6 mM; higher = less ribozyme self-cleavage, higher mRNA level; settings: with (6R,S)-folinic acid; ligand present: yes
Outline: as §1

| Variant | normalized RNA/DNA level without ligand (log10) ((6R,S)-folinic acid [1]) | normalized RNA/DNA level with ligand (log10) ((6R,S)-folinic acid [2]) |
| --- | --- | --- |
| GCUGUCACCGGUGCUUGGUACGUUAUAUUCAGCCGGUCUGAUGAGUCUGCCGCCAGACGAAACAGC [GCCGCC] | 2.024 ± 0.0036 | 2.0189 ± 0.00031 |
| GCUGUCACCGGUGCUUGGUACGUUAUAUUCAGCCGGUCUGAUGAGUCUUCCGCCAGACGAAACAGC [UCCGCC] | 2.03 ± 0.021 | 2.0083 ± 0.00058 |
| GCUGUCACCGGUGCUUGGUACGUUAUAUUCAGCCGGUCUGAUGAGUCUACCGCCAGACGAAACAGC [ACCGCC] | 2.045 ± 0.02 | 2.05 ± 0.041 |
| GCUGUCACCGGUGCUUGGUACGUUAUAUUCAGCCGGUCUGAUGAGUCUCCCGCGAGACGAAACAGC [CCCGCG] | 2.09 ± 0.023 | 2.01 ± 0.034 |
| GCUGUCACCGGUGCUUGGUACGUUAUAUUCAGCCGGUCUGAUGAGUCUGCCGCGAGACGAAACAGC [GCCGCG] | 2.0553 ± 0.00018 | 2.092 ± 0.0094 |
| GCUGUCACCGGUGCUUGGUACGUUAUAUUCAGCCGGUCUGAUGAGUCUACCGCGAGACGAAACAGC [ACCGCG] | 1.994 ± 0.015 | 2.05 ± 0.017 |
| GCUGUCACCGGUGCUUGGUACGUUAUAUUCAGCCGGUCUGAUGAGUCUCCCGCUAGACGAAACAGC [CCCGCU] | 2.109 ± 0.014 | 2.08 ± 0.068 |
| GCUGUCACCGGUGCUUGGUACGUUAUAUUCAGCCGGUCUGAUGAGUCUGCCGCUAGACGAAACAGC [GCCGCU] | 2.048 ± 0.0044 | 2.04 ± 0.044 |
| GCUGUCACCGGUGCUUGGUACGUUAUAUUCAGCCGGUCUGAUGAGUCUUCCGCUAGACGAAACAGC [UCCGCU] | 2.068 ± 0.01 | 2.042 ± 0.015 |
| GCUGUCACCGGUGCUUGGUACGUUAUAUUCAGCCGGUCUGAUGAGUCUACCGCUAGACGAAACAGC [ACCGCU] | 2.07 ± 0.026 | 2.08 ± 0.028 |
| GCUGUCACCGGUGCUUGGUACGUUAUAUUCAGCCGGUCUGAUGAGUCUCCCGGAAGACGAAACAGC [CCCGGA] | 2.073 ± 0.016 | 2.03 ± 0.061 |
| GCUGUCACCGGUGCUUGGUACGUUAUAUUCAGCCGGUCUGAUGAGUCUGCCGGAAGACGAAACAGC [GCCGGA] | 2.07 ± 0.036 | 2.02 ± 0.031 |
| GCUGUCACCGGUGCUUGGUACGUUAUAUUCAGCCGGUCUGAUGAGUCUUCCGGAAGACGAAACAGC [UCCGGA] | 1.99 ± 0.038 | 2.02 ± 0.063 |
| GCUGUCACCGGUGCUUGGUACGUUAUAUUCAGCCGGUCUGAUGAGUCUACCGGAAGACGAAACAGC [ACCGGA] | 2.056 ± 0.0065 | 2.042 ± 0.013 |
| GCUGUCACCGGUGCUUGGUACGUUAUAUUCAGCCGGUCUGAUGAGUCUCCCGGCAGACGAAACAGC [CCCGGC] | 2.08 ± 0.037 | 2.02 ± 0.065 |
| GCUGUCACCGGUGCUUGGUACGUUAUAUUCAGCCGGUCUGAUGAGUCUGCCGGCAGACGAAACAGC [GCCGGC] | 2.049 ± 0.0034 | 1.98 ± 0.051 |
| GCUGUCACCGGUGCUUGGUACGUUAUAUUCAGCCGGUCUGAUGAGUCUUCCGGCAGACGAAACAGC [UCCGGC] | 2.08 ± 0.024 | 2.024 ± 0.018 |
| GCUGUCACCGGUGCUUGGUACGUUAUAUUCAGCCGGUCUGAUGAGUCUACCGGCAGACGAAACAGC [ACCGGC] | 2.1359 ± 0.0014 | 2.085 ± 0.015 |
| GCUGUCACCGGUGCUUGGUACGUUAUAUUCAGCCGGUCUGAUGAGUCUCCCGGGAGACGAAACAGC [CCCGGG] | 2.019 ± 0.0077 | 1.987 ± 0.0062 |
| GCUGUCACCGGUGCUUGGUACGUUAUAUUCAGCCGGUCUGAUGAGUCUGCCGGGAGACGAAACAGC [GCCGGG] | 2.086 ± 0.015 | 2.045 ± 0.003 |
